This note sets out measurements from US20230322924A1 (Janssen / Centocor, published 2023).

The target in assay [1] is Human CD33 ECD-HSA (human). Put plainly: SPRi off-rate screen (IBIS MX96), mAb captured by anti-human Fc; column head prints KD.
Assay [2] concerns the target T1, Cyno CD33 full length, expressed on HEK293F cells (cynomolgus monkey).
T1 construct: HEK293F cells transduced with lentivirus containing full length cyno CD33 (Genbank XP_005590138.1); also called cyCD33
Put plainly: flow cytometry, HEK293F cells expressing cyno CD33. Background: A flow cytometer gives signals particle by particle.

Assay [3] deals with T2, Cyno CD33 ECD-HSA (cynomolgus monkey).
T2 construct: Cyno CD33 extracellular domain fused to monomeric human serum albumin and a six-histidine tag; also called C33W1
Put plainly: SPRi off-rate screen (IBIS MX96), mAb captured by anti-human Fc; column head prints Cyno CD33 binding KD.

In assay [4] the target is Human CD33 ECD-HSA (human). Briefly: ProteOn SPR, mAb captured by anti-human Fc, 1:1 Langmuir fit.
The target in assay [5] is T2, Cyno CD33 ECD-HSA. The assay is described as above.
Assay [6] has as its target T3, Human CD33 full length, expressed on HEK293F cells (human, UniProt P20138 18-364).
T3 construct: HEK293F cells transduced with lentivirus containing full length human CD33; also called huCD33
Briefly: flow cytometry, HEK293F cells expressing human CD33.

T3 sequence (P20138 18-364 limits assumed): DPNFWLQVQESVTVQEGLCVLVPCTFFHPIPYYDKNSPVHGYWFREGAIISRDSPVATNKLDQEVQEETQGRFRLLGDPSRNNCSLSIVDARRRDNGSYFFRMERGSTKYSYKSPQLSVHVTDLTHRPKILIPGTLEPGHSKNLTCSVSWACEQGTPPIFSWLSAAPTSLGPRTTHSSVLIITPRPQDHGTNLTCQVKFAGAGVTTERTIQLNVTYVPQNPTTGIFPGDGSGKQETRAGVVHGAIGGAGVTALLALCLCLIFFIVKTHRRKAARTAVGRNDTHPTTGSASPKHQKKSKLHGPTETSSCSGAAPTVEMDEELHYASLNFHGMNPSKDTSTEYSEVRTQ
Human CD33 ECD-HSA (human), sequence (chain, as listed by the source): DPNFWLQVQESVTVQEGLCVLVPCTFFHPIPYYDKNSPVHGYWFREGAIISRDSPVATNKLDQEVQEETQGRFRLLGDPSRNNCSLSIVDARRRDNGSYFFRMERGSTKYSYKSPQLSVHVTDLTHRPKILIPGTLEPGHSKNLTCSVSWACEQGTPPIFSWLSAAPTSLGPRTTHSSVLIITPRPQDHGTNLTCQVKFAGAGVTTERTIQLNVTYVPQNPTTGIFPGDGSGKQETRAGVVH

B1: C33B82 (antibody, IgG1, V domains shown)
VH: QVQLVESGGGVVQPGRSLRLSCAASGFTFSSYGMHWVRQAPGKGLEWVAVISYDGSNKYYADSVKGRFTISRDNSKNTLFLQMNSLRAEDTAVYYCAKDFRYFDWLPPDSSSYYGMDVWGQGTTVTVSS
VL: SYELTQPPSVSVSPGQTASITCSGDELGNKYACWYQQKPGQSPVVVVYQDRKRPSGIPERFSGSNFGNTATLTISGTQAMDEADYYCQAWDSSTVVFGGGTKLTVL
notes: huIgG1 F405L; also called C33F87; C33H78/C33L57
On to B1, for which the koff with Human CD33 ECD-HSA [1] was 0.000341 s⁻¹. Besides, in assay [2], the “MFI at 0 nM mAb (background)” value came out at 84.2 MFI, the “MFI at 0.6 nM mAb” value was 1540 MFI, the “MFI at 6 nM mAb” value was found to be 6620 MFI and the “MFI at 60 nM mAb” value was found to be 14300 MFI. This molecule returned a koff in the assay with Cyno CD33 ECD-HSA [3] of 0.00067 s⁻¹. In the assay with Human CD33 ECD-HSA [4], the Kd is 0.61 nM, the dissociation rate constant (koff) was 0.00027 s⁻¹ and the kon worked out at 445000 M⁻¹ s⁻¹. Further, in the assay with Cyno CD33 ECD-HSA [5], binding was put at a Kd of 1.38 nM, the koff stood at 0.000751 s⁻¹ and the kon came to 545000 M⁻¹ s⁻¹. Further, in assay [6], the “MFI at 0 nM mAb (background)” value worked out at 73.4 MFI, the “MFI at 0.6 nM mAb” value amounted to 5030 MFI, the “MFI at 6 nM mAb” value turned out to be 41300 MFI and the “MFI at 60 nM mAb” value was determined as 189000 MFI.

B2: C33B52 (antibody, IgG1, V domains shown)
VH: QLQLQESGPGLVNPSETLSHTCTVSGGSISSSSHYWGWIRQPPGKGLEWIGKIYYSGNTYYNPSLKSRVTISIDTSKNQFSLKMSSVTAADTAVYYCARLADVVVVPAARYFDSWGQGTLVTVSS
VL: SYELTQPPSVSVSPGQTASIICSGDKLGNKYACWYQQKPGQSPVLVIYQDSKRPSGIPERFSGSNSGNTATLTISGTQAVDEADYYCQAWDSSTYVFGTGTKVTVL
notes: huIgG1 F405L; also called C33F57; C33H42/C33L8
For the molecule B2, the koff with Human CD33 ECD-HSA [1] amounted to 0.00313 s⁻¹. Moreover, in assay [2], the “MFI at 0 nM mAb (background)” value stood at 75.2 MFI, the “MFI at 0.6 nM mAb” value came to 2060 MFI, the “MFI at 6 nM mAb” value came out at 8440 MFI and the “MFI at 60 nM mAb” value was 12600 MFI. Further, the koff in the assay with Cyno CD33 ECD-HSA [3] came to 0.0012 s⁻¹. In the assay with Human CD33 ECD-HSA [4], the affinity, expressed as Kd, was 19.2 nM; the koff came to 0.00396 s⁻¹; the association rate constant (kon) was 206000 M⁻¹ s⁻¹. For the same molecule, in the assay with Cyno CD33 ECD-HSA [5], the affinity, expressed as Kd, was 4.74 nM; the koff was 0.00148 s⁻¹; the kon was 313000 M⁻¹ s⁻¹. Further, in assay [6], the “MFI at 0 nM mAb (background)” value was determined as 82.5 MFI, the “MFI at 0.6 nM mAb” value is 6750 MFI, the “MFI at 6 nM mAb” value was 46300 MFI and the “MFI at 60 nM mAb” value was 197000 MFI.

B3: C33B125 (antibody, IgG1, V domains shown)
VH: QVQLVESGGGVVQPGRSLRLSCAASGFTFSSYGMHWVRQAPGKGLEWVAVISYDGSNKYYADSVKGRFTISRDNSKNTLYLQMNSLRAEDTAVYYCAKDFRSFDWLPPDSTSYYGMDVWGQGTTVTVSS
VL: SYELTQPPSVSVSPGQTASITCSGDKLGDKYVCWYQQKPGQSPVVVIHQDRKRPSGIPERFSGSNFGNTATLTISGTQAMDEADYYCQAWDSSTVVFGGGTKLTVL
notes: huIgG1 F405L; also called C33F130; C33H84/C33L66
B3 registered a koff with Human CD33 ECD-HSA [1] of 0.000154 s⁻¹. Further, in assay [2], the “MFI at 0 nM mAb (background)” value amounted to 70.2 MFI, the “MFI at 0.6 nM mAb” value came out at 3460 MFI, the “MFI at 6 nM mAb” value amounted to 11500 MFI and the “MFI at 60 nM mAb” value was 15600 MFI. Further, in the assay with Cyno CD33 ECD-HSA [3], the koff stood at 0.000351 s⁻¹. In the assay with Human CD33 ECD-HSA [4], this molecule gave a Kd of 0.14 nM, a koff of 0.000134 s⁻¹ and a kon of 992000 M⁻¹ s⁻¹. In the assay with Cyno CD33 ECD-HSA [5], this molecule showed a Kd of 0.304 nM, a koff of 0.000339 s⁻¹ and a kon of 1.12e+06 M⁻¹ s⁻¹. In addition, in assay [6], the “MFI at 0 nM mAb (background)” value was determined as 78.3 MFI, the “MFI at 0.6 nM mAb” value worked out at 9200 MFI, the “MFI at 6 nM mAb” value is 79700 MFI and the “MFI at 60 nM mAb” value was determined as 259000 MFI.

B4: C33B87 (antibody, IgG1, V domains shown)
VH: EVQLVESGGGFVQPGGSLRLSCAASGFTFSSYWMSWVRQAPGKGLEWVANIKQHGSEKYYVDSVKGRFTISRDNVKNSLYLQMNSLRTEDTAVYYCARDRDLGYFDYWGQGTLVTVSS
VL: SYELTQPPSVSVSPGQTASITCSGDKLGNKYASWYQQKPGQSPVLVIYQDTKRPSGIPERVSGSNSGNTATLTISGTQAMDEADYHCQAWDSSTVVFGGGTKLTVL
notes: huIgG1 F405L; also called C33F92; C33H87/C33L35
As to B4, the koff with Human CD33 ECD-HSA [1] stood at 0.000352 s⁻¹. In addition, in assay [2], the “MFI at 0 nM mAb (background)” value turned out to be 103 MFI, the “MFI at 0.6 nM mAb” value is 3270 MFI, the “MFI at 6 nM mAb” value was 12700 MFI and the “MFI at 60 nM mAb” value worked out at 19600 MFI. Moreover, the koff in the assay with Cyno CD33 ECD-HSA [3] is 0.000228 s⁻¹. Further, in the assay with Human CD33 ECD-HSA [4], the Kd was 0.6 nM, the koff stood at 0.000432 s⁻¹ and the association rate constant (kon) is 720000 M⁻¹ s⁻¹. In the assay with Cyno CD33 ECD-HSA [5], this molecule showed a Kd of 0.236 nM, a koff of 0.000264 s⁻¹ and a kon of 1.12e+06 M⁻¹ s⁻¹. Besides, in assay [6], the “MFI at 0 nM mAb (background)” value was found to be 73.7 MFI, the “MFI at 0.6 nM mAb” value amounted to 12500 MFI, the “MFI at 6 nM mAb” value was determined as 79500 MFI and the “MFI at 60 nM mAb” value was 242000 MFI.

B5: C33B83 (antibody, V domains shown)
VH: QVQLVESGGGVVQPGRSLRLSCAASGFTFSAYGMHWVRQAPGKGLEWVAVISYDGSNKYYADSVKGRFTISRDNSKNTLYLQMNSLRAEGTAVYYCAKDFRSFDWLPPDSASYHGMDVWGQGTTVTVSS
VL: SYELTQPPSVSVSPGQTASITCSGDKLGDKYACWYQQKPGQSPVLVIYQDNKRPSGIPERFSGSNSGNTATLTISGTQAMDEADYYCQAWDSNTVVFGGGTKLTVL
notes: huIgG1 F405L; also called C33F88; C33H81/C33L53
Regarding B5, the koff in the assay with Human CD33 ECD-HSA [1] turned out to be 0.000461 s⁻¹. Besides, in assay [2], the “MFI at 0 nM mAb (background)” value amounted to 87.3 MFI, the “MFI at 0.6 nM mAb” value came to 159 MFI, the “MFI at 6 nM mAb” value is 687 MFI and the “MFI at 60 nM mAb” value turned out to be 5300 MFI. In the assay with Cyno CD33 ECD-HSA [3], this molecule registered a koff of 0.00217 s⁻¹. In addition, in the assay with Human CD33 ECD-HSA [4], the Kd was 1.93 nM, the koff stood at 0.000521 s⁻¹ and the kon turned out to be 270000 M⁻¹ s⁻¹. Besides, in the assay with Cyno CD33 ECD-HSA [5], the Kd was 11.7 nM, the koff came to 0.00288 s⁻¹ and the kon is 247000 M⁻¹ s⁻¹. Further, in assay [6], the “MFI at 0 nM mAb (background)” value amounted to 87.4 MFI, the “MFI at 0.6 nM mAb” value was determined as 1020 MFI, the “MFI at 6 nM mAb” value worked out at 7860 MFI and the “MFI at 60 nM mAb” value stood at 93000 MFI.

B6: C33B77 (antibody, IgG1, V domains shown)
VH: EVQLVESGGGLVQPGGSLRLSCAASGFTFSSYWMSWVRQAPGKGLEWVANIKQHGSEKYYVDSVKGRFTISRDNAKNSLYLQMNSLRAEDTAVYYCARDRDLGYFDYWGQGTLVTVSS
VL: SYELTQPPSVSVSPGQTASITCSGNKLGAKFASWYQQKPGQSPVLVIYQDNKRPSGIPERFSGSNSGNTATLTISGTQAVDEADYYCQAWDSSTVVFGGGTKLTVL
notes: huIgG1 F405L; also called C33F82; C33H72/C33L40
As to B6, the koff with Human CD33 ECD-HSA [1] was found to be 0.000337 s⁻¹. For the same molecule, in assay [2], the “MFI at 0 nM mAb (background)” value came to 85.2 MFI, the “MFI at 0.6 nM mAb” value amounted to 3600 MFI, the “MFI at 6 nM mAb” value worked out at 11700 MFI and the “MFI at 60 nM mAb” value is 17500 MFI. In the assay with Cyno CD33 ECD-HSA [3], this molecule displayed a koff of 0.000418 s⁻¹. In the assay with Human CD33 ECD-HSA [4], this molecule returned a Kd of 0.32 nM, an off-rate constant (koff) of 0.000262 s⁻¹ and a kon of 828000 M⁻¹ s⁻¹. In the assay with Cyno CD33 ECD-HSA [5], this molecule returned a Kd of 0.247 nM, a koff of 0.000266 s⁻¹ and a kon of 1.08e+06 M⁻¹ s⁻¹. Also, in assay [6], the “MFI at 0 nM mAb (background)” value was 69.5 MFI, the “MFI at 0.6 nM mAb” value was 11500 MFI, the “MFI at 6 nM mAb” value stood at 88700 MFI and the “MFI at 60 nM mAb” value was 242000 MFI.

B7: C33B63 (antibody, IgG1, V domains shown)
VH: QLQLQESGPGLVKPSETLSLTCTVSGGSISTGRYYWGWIRQPPGKGVIWIGNIYYSGNTYYNPSLKSRVTISVDTSKNQFSLKLNSVTAADTAVYYCARLGSLVVVPAAMSFDYWGQGTLVTVSS
VL: SYELTQPPSVSVSPGQTASITCSGDKLGDKYACWYQLRPGQSPILVIYQDSNRPSGIPERFSGSNSGNTATLTISGTQAMDEADYYCQAWDSSTWVFGGGTKLTVL
notes: huIgG1 F405L; also called C33F68; C33H51/C33L34
In the assay with Human CD33 ECD-HSA [1], B7 yielded a koff of 0.00457 s⁻¹. In addition, in assay [2], the “MFI at 0 nM mAb (background)” value stood at 87.9 MFI, the “MFI at 0.6 nM mAb” value is 2880 MFI, the “MFI at 6 nM mAb” value came to 11600 MFI and the “MFI at 60 nM mAb” value came out at 18300 MFI. The koff with Cyno CD33 ECD-HSA [3] is 0.000947 s⁻¹. In the assay with Human CD33 ECD-HSA [4], the Kd stood at 7.01 nM, the koff turned out to be 0.00374 s⁻¹ and the kon is 533000 M⁻¹ s⁻¹. In the assay with Cyno CD33 ECD-HSA [5], this molecule showed a Kd of 1.22 nM, a koff of 0.00088 s⁻¹ and a kon of 723000 M⁻¹ s⁻¹. In assay [6], the “MFI at 0 nM mAb (background)” value was found to be 86.3 MFI, the “MFI at 0.6 nM mAb” value turned out to be 9670 MFI, the “MFI at 6 nM mAb” value came out at 62200 MFI and the “MFI at 60 nM mAb” value worked out at 248000 MFI.

The koff is the first-order rate constant of dissociation. One may read the Kd as the constant that tells how readily two partners part at equilibrium. Read a low Kd as tighter binding. What is called kon is the second-order rate constant of association. A low value points to slow association.
